We go through 1 substance from US20100173800.

The target in the data set is MuA transposase (bacteriophage Mu) (UniProt P07636). Nature of the data set: cell_activity. The settings on record: HeLa electroporation; linear transposon about 100 cfu/ug; 5 bp target duplication in sequenced clones (Table 1).
Sequence of MuA transposase (bacteriophage Mu) (P07636 whole entry): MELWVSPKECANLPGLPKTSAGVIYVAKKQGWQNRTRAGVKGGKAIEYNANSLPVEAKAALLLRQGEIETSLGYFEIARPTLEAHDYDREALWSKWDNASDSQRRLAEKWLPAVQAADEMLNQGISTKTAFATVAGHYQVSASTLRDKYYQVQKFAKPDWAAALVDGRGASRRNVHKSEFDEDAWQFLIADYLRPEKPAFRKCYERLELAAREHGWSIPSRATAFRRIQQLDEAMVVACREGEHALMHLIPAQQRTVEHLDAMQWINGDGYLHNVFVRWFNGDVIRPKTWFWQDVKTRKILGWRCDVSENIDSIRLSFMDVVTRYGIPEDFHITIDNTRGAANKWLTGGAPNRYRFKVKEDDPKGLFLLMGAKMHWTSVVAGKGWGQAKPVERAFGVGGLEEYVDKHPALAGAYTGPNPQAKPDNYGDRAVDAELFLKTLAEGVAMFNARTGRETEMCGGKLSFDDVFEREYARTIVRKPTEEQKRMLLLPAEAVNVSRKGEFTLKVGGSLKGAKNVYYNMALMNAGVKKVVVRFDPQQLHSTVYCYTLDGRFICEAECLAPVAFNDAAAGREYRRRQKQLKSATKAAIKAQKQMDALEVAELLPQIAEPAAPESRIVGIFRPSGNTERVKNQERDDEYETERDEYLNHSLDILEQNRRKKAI

“Kan/Neo-Mu transposon (Kan/Neo-LoxP-Mu 2135 bp or Kan/Neo-p15A-Mu 2795 bp)” registered an activity of 2400 cfu/µg DNA.
